Results: the Human Domainome abundance scans (Beltran et al. 2025)

B1: Intersectin-1, residues 1156 to 1213; numbered along this chain, Q15811 (parent)
chain: AVCQVIGMYDYTAQNDDELAFNKGQIINVLNKEDPDWWKGEVNGQVGLFPSNYVKLTT

Variants of: B1
Assay: abundance fitness (aPCA) (normalised: wild type 0, dead -1); higher = more abundant; growth selection in yeast, the domain comes from the species named
Conditions: Homo sapiens

Abundance fitness: each site, then its substitutions
L48: K -0.055; P -0.886; W 0.028; M -0.111; V -0.068; N -0.166; T -0.184; S -0.258; I 0.063; Y -0.056; Q -0.479; F 0.146; G -0.544; R -0.07; E -0.784; H -0.335; D -0.761
N52: V -0.439; F -0.784; C -0.251; G -0.253; Q -0.147; M -0.097; L -0.561; W -0.446; P -0.544; E -0.201; S -0.075; T -0.067; A -0.183; D -0.079; I -0.364; R 0.022; H -0.469; Y -0.291
K55: L -0.318; N -0.456; Y -0.427; C -0.098; H -0.431; F -0.614; W -0.678; M 0.024; A -0.146; S -0.004; P -0.797; R 0.067; T -0.225; Q -0.177; D -0.513; I -0.325
T58: L -0.187; R 0.062; N -0.233; S -0.144; P -0.09; I -0.587; G 0.053; V -0.113; A -0.315
Y53: H -0.26; V -0.343; C 0.034; M 0.12; K 0.085; Q -0.224; E -0.711; P -0.726; T -0.11; D -0.834; L -0.155; R -0.068; F -0.208; N -0.54; G -0.601; W -0.255; I -0.239; A 0.043; S -0.426
S51: A -0.029; W -0.877; E -1.02; Q -0.452; V -0.181; I -0.751; L -0.867; G -0.87; F -0.942; R -0.053; T -0.312; K -0.09; N -0.506; C -0.504; H -0.517; Y -0.927; P -0.235
L56: C 0.266; T 0.081; P -0.121; A 0.08; D -0.106; S 0.083; H -0.334; V 0.006; N -0.149; Q -0.151; R -0.341; I 0.069; E 0.005; Y -0.168; W -0.405; G -0.102; F -0.124; M -0.148
V54: S -0.874; Y -0.766; E -0.931; F -0.806; M -0.755; H -0.767; A -0.546; K -0.906; N -0.758; G -0.836; R -0.684; W -0.762; Q -0.904; T -0.065; L -0.854; P -0.842; I -0.773; D -0.943; C -0.367
T57: A -0.059; C -0.115; H -0.003; K -0.024; E -0.519; V -0.06; Y -0.063; L -0.116; S -0.174; Q 0.028; I -0.13; W -0.167; M -0.009; N -0.028; D -0.055; R -0.131; F 0.086
P50: W -0.713; M -0.799; N -0.71; I -0.671; S -0.954; K -0.547; R -0.323; T -0.773; V -0.929; Y -0.932; F -0.459; H -0.973; Q -1.06; C -0.615; L -0.873; E -0.847; D -0.507
